From doi:10.1101/2021.03.03.433707 (bioRxiv, 2021)
Changes are numbered by the printed parent chain. Names may count otherwise. One block for each binder: values may come before it.

Experiments:
[1] = biological target: T1, ParC, full length (E. coli, UniProt P0AFI2 1-752); assay: ITC
T1 sequence (looked up): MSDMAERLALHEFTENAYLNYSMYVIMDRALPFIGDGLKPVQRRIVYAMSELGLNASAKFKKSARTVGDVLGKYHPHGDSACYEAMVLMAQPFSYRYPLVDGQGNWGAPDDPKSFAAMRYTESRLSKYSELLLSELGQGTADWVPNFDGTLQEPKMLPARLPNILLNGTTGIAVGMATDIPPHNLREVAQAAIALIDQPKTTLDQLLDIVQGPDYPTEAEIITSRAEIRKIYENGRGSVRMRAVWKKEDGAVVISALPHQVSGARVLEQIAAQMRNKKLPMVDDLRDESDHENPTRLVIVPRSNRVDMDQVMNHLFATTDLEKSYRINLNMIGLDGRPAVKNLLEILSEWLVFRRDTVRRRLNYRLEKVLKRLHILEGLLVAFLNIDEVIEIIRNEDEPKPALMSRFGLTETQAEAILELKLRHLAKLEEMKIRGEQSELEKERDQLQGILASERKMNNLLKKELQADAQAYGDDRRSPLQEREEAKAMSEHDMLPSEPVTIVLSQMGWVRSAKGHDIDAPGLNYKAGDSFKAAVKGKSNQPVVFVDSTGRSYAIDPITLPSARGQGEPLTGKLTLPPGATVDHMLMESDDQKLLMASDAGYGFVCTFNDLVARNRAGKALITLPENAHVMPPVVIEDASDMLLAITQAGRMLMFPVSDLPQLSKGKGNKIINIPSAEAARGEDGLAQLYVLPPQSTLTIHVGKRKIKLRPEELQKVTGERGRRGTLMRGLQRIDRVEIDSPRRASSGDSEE

[2] = biological target: the molecule itself; assay: native MS
[3] = biological target: T1, ParC, full length; assay: native MS
[4] = biological target: T1, ParC, full length; assay: SEC

Kd [1]: 690 nM
dH [1]: -7.48 kcal/mol
stoichiometry N [1]: 0.84
stoichiometry N [3]: 1 ParC dimer per LH dimer
B1: MukB long hinge (LH, 568-863) (domain or fragment, E. coli, UniProt P22523 568-863, looked up)
chain: SLSDSVSNAREERMALRQEQEQLQSRIQSLMQRAPVWLAAQNSLNQLSEQCGEEFTSSQDVTEYLQQLLEREREAIVERDEVGARKNAVDEEIERLSQPGGSEDQRLNALAERFGGVLLSEIYDDVSLEDAPYFSALYGPSRHAIVVPDLSQVTEHLEGLTDCPEDLYLIEGDPQSFDDSVFSVDELEKAVVVKIADRQWRYSRFPEVPLFGRAARESRIESLHAEREVLSERFATLSFDVQKTQRLHQAFSRFIGSHLAVAFESDPEAEIRQLNSRRVELERALSNHENDNQQQR
stoichiometry N [2]: 2

binding result [4]: binds
B2: ParE-His (enzyme, E. coli, UniProt P20083 1-630, looked up)
chain: MTQTYNADAIEVLTGLEPVRRRPGMYTDTTRPNHLGQEVIDNSVDEALAGHAKRVDVILHADQSLEVIDDGRGMPVDIHPEEGVPAVELILCRLHAGGKFSNKNYQFSGGLHGVGISVVNALSKRVEVNVRRDGQVYNIAFENGEKVQDLQVVGTCGKRNTGTSVHFWPDETFFDSPRFSVSRLTHVLKAKAVLCPGVEITFKDEINNTEQRWCYQDGLNDYLAEAVNGLPTLPEKPFIGNFAGDTEAVDWALLWLPEGGELLTESYVNLIPTMQGGTHVNGLRQGLLDAMREFCEYRNILPRGVKLSAEDIWDRCAYVLSVKMQDPQFAGQTKERLSSRQCAAFVSGVVKDAFILWLNQNVQAAELLAEMAISSAQRRMRAAKKVVRKKLTSGPALPGKLADCTAQDLNRTELFLVEGDSAGGSAKQARDREYQAIMPLKGKILNTWEVSSDEVLASQEVHDISVAIGIDPDSDDLSQLRYGKICILADADSDGLHIATLLCALFVKHFRALVKHGHVYVALPPLYRIDLGKEVYYALTEEEKEGVLEQLKRKKGKPNVQRFKGLGEMNPMQLRETTLDPNTRRLVQLTIDDEDDQRTDAMMDMLLAKKRSEDRRNWLQEKGDMAEIEV

B3: MatP^4A (K71A, Q72A, R75A and R77A) (domain or fragment, E. coli, UniProt P0A8N0 1-132, looked up)
chain: MKYQQLENLESGWKWKYLVKKHREGELITRYIEASAAQEAVDVLLSLENEPVLVNGWIDKHMNPELVNRMAATIAAARKRHFNAEHQHTRKKSIDLEFIVWQRLAGLAQRRGKTLSETIVQLIEDAENKEKY
stoichiometry N [2]: 2

B4: MatP^4E (K71E, Q72E, R75E and R77E) (domain or fragment, E. coli, UniProt P0A8N0 1-132, looked up)
chain: B3 chain with A71E, A72E, A75E, A77E
stoichiometry N [2]: 2
